Patent US20220119534A1 (DRAGONFLY THERAPEUTICS, published 2022)
Where a chain is given by its changes, count along the chain named. In names and notes the source's numbering stands. Several values for one entry are separate records, joined by “and”; a condition that tells them apart may be missing. Equal values may be shown once. Each block holds one binder with its values, some of them ahead of it.

Experiments:
[1] = target: T1, Human CD16a V158 (FcγRIIIa V158) (human, UniProt P08637 17-208, biotinylated (site not stated)); experiment: SPR; biotinylated CD16a V158 captured on SA chip, TriNKET as analyte; 1:1 kinetic fit; after low pH hold, n=3
T1 construct: V158 is the allele name in mature numbering; also called hCD16aV; hCD16a V158
T1 sequence (P08637 17-208 F176V limits assumed): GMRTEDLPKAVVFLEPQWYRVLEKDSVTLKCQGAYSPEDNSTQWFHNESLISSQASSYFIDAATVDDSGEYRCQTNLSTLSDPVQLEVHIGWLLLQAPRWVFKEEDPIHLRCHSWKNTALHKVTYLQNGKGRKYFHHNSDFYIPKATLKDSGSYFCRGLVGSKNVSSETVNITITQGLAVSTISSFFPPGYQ

Human CLEC12A-His = target: T2, Human CLEC12A-His (human, UniProt Q5QGZ9 65-265); experiment: SPR Biacore 8K 37 C; TriNKET captured on anti-hFc chip, hCLEC12A-His as analyte; 1:1 fit; after low pH hold (pH 3.3, 1.5 h), n=4
T2 construct: Recombinant soluble protein made in house (Dragonfly Tx); The hCLEC12A spot of the HuProt array is written under this molecule as well; also called hCLEC12A-His; hCLEC12A; not shown: His tag
T2 sequence: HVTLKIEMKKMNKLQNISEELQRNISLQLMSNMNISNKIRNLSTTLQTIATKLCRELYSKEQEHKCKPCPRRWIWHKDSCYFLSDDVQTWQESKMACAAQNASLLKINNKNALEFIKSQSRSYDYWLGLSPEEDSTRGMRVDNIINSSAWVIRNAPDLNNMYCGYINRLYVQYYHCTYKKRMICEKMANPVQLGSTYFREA

Cynomolgus CD16 = target: T3, Cynomolgus CD16 (cynomolgus monkey, UniProt Q8SPW2 17-208, biotinylated); experiment: SPR, steady state fit; average for AB0192
T3 construct: Bought recombinant receptor; also called cFcγRIII; Cynomolgus FcγRIII
T3 sequence (Q8SPW2 17-208 limits assumed): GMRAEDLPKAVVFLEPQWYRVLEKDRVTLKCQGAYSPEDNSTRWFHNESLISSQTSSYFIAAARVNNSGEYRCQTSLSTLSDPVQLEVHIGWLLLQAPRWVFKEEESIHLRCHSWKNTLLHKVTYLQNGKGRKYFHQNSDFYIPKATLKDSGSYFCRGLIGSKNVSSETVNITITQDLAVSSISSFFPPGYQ

Human FcRn = target: T4, Human FcRn (human, UniProt P55899 24-297; P61769 21-119); experiment: SPR, steady state fit; average for AB0192
T4 construct: Bought recombinant receptor; also called hFcRn

Cynomolgus FcRn = target: T5, Cynomolgus FcRn (cynomolgus monkey, UniProt Q8SPV9 24-297; Q8SPW0 21-119); experiment: SPR, steady state fit; average for AB0192
T5 construct: Bought recombinant receptor; also called cFcRn; Cyno FcRn
T5 sequence (Q8SPV9 24-297 limits assumed, chain 1 of 2): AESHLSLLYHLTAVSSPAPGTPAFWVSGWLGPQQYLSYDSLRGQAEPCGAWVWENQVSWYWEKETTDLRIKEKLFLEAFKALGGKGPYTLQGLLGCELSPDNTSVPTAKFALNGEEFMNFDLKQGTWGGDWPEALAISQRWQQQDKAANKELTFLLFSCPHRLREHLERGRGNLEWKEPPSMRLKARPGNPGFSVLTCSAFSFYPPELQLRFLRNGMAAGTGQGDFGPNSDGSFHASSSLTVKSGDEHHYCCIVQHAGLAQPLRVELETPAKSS
T5 sequence (Q8SPW0 21-119 limits assumed, chain 2 of 2): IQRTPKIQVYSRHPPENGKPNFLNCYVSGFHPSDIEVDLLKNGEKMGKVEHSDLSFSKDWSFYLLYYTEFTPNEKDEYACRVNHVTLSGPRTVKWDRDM

mFc-hNKG2D = target: T6, mFc-hNKG2D (human, UniProt P26718 73-216); experiment: SPR, 37 C, mFc-hNKG2D captured, 1:1 kinetic fit
T6 construct: extracellular domain; Recombinant mFc-tagged NKG2D dimer, made in house; also called human NKG2D; not shown: mouse Fc tag
T6 sequence (looked up): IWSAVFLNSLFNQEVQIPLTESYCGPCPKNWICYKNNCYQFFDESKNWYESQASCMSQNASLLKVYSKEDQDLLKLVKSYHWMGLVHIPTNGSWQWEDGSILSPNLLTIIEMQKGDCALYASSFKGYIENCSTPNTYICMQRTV

[2] = target: T7, Human CLEC12A expressed on cells (Ba/F3-hCLEC12A, PL21, HL60) (human, UniProt Q5QGZ9 1-265); experiment: cell-based or functional assay
T7 sequence: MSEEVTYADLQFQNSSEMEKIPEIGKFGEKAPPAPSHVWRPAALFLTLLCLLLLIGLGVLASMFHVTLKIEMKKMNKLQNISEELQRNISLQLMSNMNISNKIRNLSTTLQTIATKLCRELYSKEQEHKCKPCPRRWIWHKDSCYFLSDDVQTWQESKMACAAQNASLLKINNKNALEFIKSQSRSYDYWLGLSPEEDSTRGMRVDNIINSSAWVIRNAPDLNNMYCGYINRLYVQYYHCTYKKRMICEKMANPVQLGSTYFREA

[3] = target: T7, Human CLEC12A expressed on cells …; experiment: cell-based or functional assay; remark: listed apart in the source
Human CD64 (FcγRI) = target: T8, Human CD64 (FcγRI) (human, UniProt P12314 16-288, biotinylated); experiment: SPR, summary of FcγR affinities
T8 construct: Bought recombinant receptor; also called hFcγRI; Human FcγRI
T8 sequence (P12314 16-288 limits assumed): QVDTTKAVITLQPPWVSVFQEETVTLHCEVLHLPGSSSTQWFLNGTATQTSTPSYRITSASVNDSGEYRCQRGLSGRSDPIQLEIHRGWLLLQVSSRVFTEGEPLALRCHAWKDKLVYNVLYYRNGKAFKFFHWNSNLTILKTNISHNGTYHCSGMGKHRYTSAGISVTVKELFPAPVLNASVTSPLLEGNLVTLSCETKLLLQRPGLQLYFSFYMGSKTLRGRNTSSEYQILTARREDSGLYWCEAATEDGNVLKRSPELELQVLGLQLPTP
Procedure: (§1) Human and cynomolgus CD64, high and low affinity alleles of CD16a (V158 and F158, respectively), two alleles of CD32a (H131 and R131), CD16b, CD32b and cynomolgus CD16 were captured via biotin on a primed (according to the manufacturers instruction) Biacore chip. […] Due to irreversibility of streptavidin-biotin interaction, the capture step for all receptors except FcγRI (CD64) was performed just once prior to the start of the binding experiment. hCD64 and cyno CD64 capture on the CAP chip surface was performed during each cycle in accordance with the manufacturer's instructions for the Biotin CAPture kit.
(§2) Detailed description of each individual receptor binding is presented below.

[4] = target: T9, Human CD32a H131 (FcγRIIa H131) (human, UniProt P12318 36-218, limits assumed, biotinylated); experiment: SPR, summary of FcγR affinities
T9 construct: Bought recombinant receptor; also called hFcγRIIa H131; FcgRIIa H131
T9 sequence (looked up): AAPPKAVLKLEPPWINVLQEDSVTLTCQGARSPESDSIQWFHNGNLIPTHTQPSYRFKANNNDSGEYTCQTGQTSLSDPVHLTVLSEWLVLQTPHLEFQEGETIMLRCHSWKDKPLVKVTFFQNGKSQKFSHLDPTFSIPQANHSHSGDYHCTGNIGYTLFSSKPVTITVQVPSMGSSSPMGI
Procedure: as §1, §2

[5] = target: T10, Human CD32a R131 (FcγRIIa R131) (human, UniProt P12318 36-218, limits assumed, biotinylated); experiment: SPR, summary of FcγR affinities
T10 construct: Bought recombinant receptor; also called hFcγRIIa R131; FcgRIIa R131
T10 sequence (looked up): T9 sequence (looked up) with H132R
Procedure: as §1, §2

[6] = target: T11, Human CD16a V158 (FcγRIIIa V158) (human, UniProt P08637 17-208, biotinylated); experiment: SPR, summary of FcγR affinities
T11 construct: Bought recombinant receptor; also called hCD16aV; hFcγRIIIa V158
T11 sequence (P08637 17-208 F176V limits assumed): as the sequence (P08637 17-208 F176V limits assumed) above
Procedure: as §1, §2

[7] = target: T12, Human CD16a F158 (FcγRIIIa F158) (human, UniProt P08637 17-208, biotinylated); experiment: SPR, summary of FcγR affinities
T12 construct: Bought recombinant receptor; also called hFcγRIIIa F158
T12 sequence (P08637 17-208 limits assumed): as the sequence (P08637 17-208 F176V limits assumed) above, with V160F counted along it
Procedure: as §1, §2

[8] = target: T13, Human CLEC12A-His (recombinant, K244 WT) (human, UniProt Q5QGZ9 65-265); experiment: SPR, two-state fit; control sample
T13 construct: Made in house (Dragonfly Tx); also called hCLEC12A; hCLEC12A-His; not shown: His tag
T13 sequence: T2 sequence

[9] = target: T14, recombinant cynomolgus FcRn (cynomolgus monkey, UniProt Q8SPV9 24-297; Q8SPW0 21-119); experiment: SPR 25C, pH 6.0, steady state, average; pH 6.0; average of four replicates
T14 construct: also called cFcRn; cyno FcRn
T14 sequence (Q8SPV9 24-297 limits assumed, chain 1 of 2): as the sequence (Q8SPV9 24-297 limits assumed, chain 1 of 2) above
T14 sequence (Q8SPW0 21-119 limits assumed, chain 2 of 2): as the sequence (Q8SPW0 21-119 limits assumed, chain 2 of 2) above
Procedure: Each FcRn binding experiment consisted of multiple cycles utilizing varying concentrations of analytes. […] As no-signal, negative controls, a 0 nM blank cycle was placed at the start of each concentration series, and a blank amine coupling modified chip surface lacking FcRn were used. Each experimental cycle included association, dissociation, and regeneration steps. The association step consisted of 60 sec analyte injection and was followed by a 60 sec dissociation step. Surface regeneration (60 sec injection of HBS-EP+ buffer, pH 7.4) completed each kinetic cycle. All steps were executed at a flow rate of 30 μL/min and at 25° C. MBS-EP+ buffer, pH 6.0 was used as a running buffer. The data were fitted to a steady state affinity model with Biacore Insight evaluation software. Chi² (calculated by the software) related to the calculated Rₘₐₓ was used to assess goodness of the fit.

B1: F3'-1602 TriNKET (bispecific antibody, human IgG1, kappa)
chain: QLQLQESGPGLVKPSETLSLTCTVSGFSLTNYGLHWIRQPPGKCLEWIGVIWSGGKTDYNPSLKSRVTISKDTSKNQFSLKLSSVQAADTAVYYCAKYDYDDSLDYWGQGTLVTVSSGGGGSGGGGSGGGGSGGGGSDIQMTQSPSSLSASVGDRVTITCHASQNINFWLSWYQQKPGKAPKLLIYEASNLHTGVPSRFSGSGSGTRFTLTISSLQPEDIATYYCQQSHSYPLTFGCGTKLEIKGSDKTHTCPPCPAPELLGGPSVFLFPPKPKDTLMISRTPEVTCVVVDVSHEDPEVKFNWYVDGVEVHNAKTKPREEQYNSTYRVVSVLTVLHQDWLNGKEYKCKVSNKALPAPIEKTISKAKGQPREPRVYTLPPCRDELTKNQVSLTCLVKGFYPSDIAVEWESNGQPENNYKTTPPVLVSDGSFTLYSKLTVDKSRWQQGNVFSCSVMHEALHNHYTQKSLSLSPG
heavy: EVQLVESGGGLVKPGGSLRLSCAASGFTFSSYSMNWVRQAPGKGLEWVSSISSSSSYIYYADSVKGRFTISRDNAKNSLYLQMNSLRAEDTAVYYCARGAPIGAAAGWFDPWGQGTLVTVSSASTKGPSVFPLAPSSKSTSGGTAALGCLVKDYFPEPVTVSWNSGALTSGVHTFPAVLQSSGLYSLSSVVTVPSSSLGTQTYICNVNHKPSNTKVDKKVEPKSCDKTHTCPPCPAPELLGGPSVFLFPPKPKDTLMISRTPEVTCVVVDVSHEDPEVKFNWYVDGVEVHNAKTKPREEQYNSTYRVVSVLTVLHQDWLNGKEYKCKVSNKALPAPIEKTISKAKGQPREPQVCTLPPSRDELTENQVSLTCLVKGFYPSDIAVEWESNGQPENNYKTTPPVLDSDGSFFLYSWLTVDKSRWQQGNVFSCSVMHEALHNHYTQKSLSLSPG
light: DIQMTQSPSSVSASVGDRVTITCRASQGISSWLAWYQQKPGKAPKLLIYAASSLQSGVPSRFSGSGSGTDFTLTISSLQPEDFATYYCQQGVSFPRTFGGGTKVEIKRTVAAPSVFIFPPSDEQLKSGTASVVCLLNNFYPREAKVQWKVDNALQSGNSQESVTEQDSKDSTYSLSSTLTLSKADYEKHKVYACEVTHQGLSSPVTKSFNRGEC
notes: Trispecific F3' format: CLEC12A scFv-Fc paired with NKG2D Fab-Fc; Stressed and control samples of the stability studies are the same molecule; also called AB0237
- Kd [1]: 210 nM
- koff [1]: 0.0229 s⁻¹
- kon [1]: 109000 M⁻¹ s⁻¹
- Kd (Human CLEC12A-His): 0.644 nM
- kon (Human CLEC12A-His): 715000 M⁻¹ s⁻¹

B4: F3'-1602 TriNKET (other)
chain: B1 chain
heavy: B1 heavy
light: B1 light
notes: CLEC12A scFv-Fc, NKG2D A49MI Fab-Fc, human IgG1 Fc; also called AB0237
- Kd [9]: 1300 nM

Second part, led by results:

- Kd (Cynomolgus CD16): 204 nM
- Kd (Human FcRn): 1500 nM
- Kd (Cynomolgus FcRn): 1400 nM
- koff (mFc-hNKG2D): 0.143 s⁻¹ and 0.153 s⁻¹
- kon (mFc-hNKG2D): 186000 M⁻¹ s⁻¹ and 196000 M⁻¹ s⁻¹ and 181000 M⁻¹ s⁻¹
B2: AB0192 TriNKET (other)
chain: EVQLVESGGGVVQPGGSLRLSCAASGFTFNAFGMHWVRQAPGKCLEWVAFISSGSTSIYYANTVKGRFTISRDNSKNTLYLQMNSLRAEDTAVYYCARDGYPTGGAMDYWGQGTSVTVSSGGGGSGGGGSGGGGSGGGGSDIQMTQSPSSLSASVGDRVTITCKASQDIYNYLSWFQQKPGKAPKPLIYRANILVSGVPSRFSGSGSGQDYTFTISSLQPEDIATYYCLQFDAFPFTFGCGTKLEIKGSDKTHTCPPCPAPELLGGPSVFLFPPKPKDTLMISRTPEVTCVVVDVSHEDPEVKFNWYVDGVEVHNAKTKPREEQYNSTYRVVSVLTVLHQDWLNGKEYKCKVSNKALPAPIEKTISKAKGQPREPRVYTLPPCRDELTKNQVSLTCLVKGFYPSDIAVEWESNGQPENNYKTTPPVLVSDGSFTLYSKLTVDKSRWQQGNVFSCSVMHEALHNHYTQKSLSLSPG
heavy: B1 heavy
light: B1 light
notes: the condition stands under assay; also called AB0192 Lot AB0192-005

- Kd (Human CD64 (FcγRI)): 5.1 nM
- Kd [4]: 900 nM
- Kd [5]: 1250 nM
- Kd [6]: 333 nM
- Kd [7]: 1270 nM
- Kd [8]: 1 nM
B3: AB0089 TriNKET (bispecific antibody, human IgG1, kappa)
chain: B1 chain with S53V, K56A, K71V, Y98G, D101G, S103T, R207D, I220F
heavy: B1 heavy
light: B1 light
notes: F3' format heterodimer of three chains; human IgG1 Fc with EW-RVT and Y349C/S354C mutations; also called AB0089 Lot AB0089-002; CLEC12A TriNKET AB0089
- EC50, KHYG1-CD16aV cytotoxicity assay; after forced oxidation [2]: 0.16 nM
- EC50, KHYG1-CD16aV cytotoxicity assay; control sample [2]: 0.11 nM
- EC50, KHYG-1-CD16aV cytotoxicity assay, HL-60 cells; after low pH hold [3]: 0.11 nM
- EC50, KHYG-1-CD16aV cytotoxicity assay, HL-60 cells; control sample [3]: 0.11 nM
